Test results: US20200362051A1 (CRESCENDO BIOLOGICS, published 2020)

Assays:
[1] = target: T1, human CD137-human Fc chimeric protein (Acro Biosystems cat no. 41B-H5258) (human, UniProt Q07011 24-186); experiment: dual binding cell based ELISA: serially diluted VH on plated CHO human PSMA cells, then 1 nM CD137huFc, detection with anti human Fc-HRP, absorbance 450 nm
T1 construct: Bought protein; also called CD137-Fc tag protein; CD137huFc; not shown: human IgG1 Fc
Experimental: Association 1—Binding of the trispecific molecule to CD137Fc captured on protein G biosensors. Association 2—binding of Human serum Albumin, Association 3—Binding of PSMA in the presence of Human serum albumin to minimise HSA dissociation. […] Dual target engagement of CD137 and PSMA by the bispecific molecules was assessed using an ELISA format and by flow cytometry with T cells. For ELISA, CHO-PSMA cells (20000/well) were seeded into 96 well plates (Greiner cat no. 353872) in Hams F12 supplemented with L-Glutamine+Blasticidin+Tetracycline and incubated at 37° C. with 5% CO₂ overnight. All subsequent steps were performed at room temperature and included washes with PBS between each step. Plates were blocked with PBS/0.1% BSA for 1 hour then serially diluted Humabody® VH were added and allowed to bind for 1 hour. Following removal of unbound VH, 1 nM CD137huFc (Acro Biosystems cat no. 41B-H5258) was added to the wells and incubated for 1 hour. A 1:3000 dilution of Anti-huFc-HRP (Jackson ImmunoResearch cat no. 109-035-098) was subsequently added for 1 hour and plates developed by addition of TMB. The reaction was stopped by addition of 0.5M sulphuric acid and plates read on BMG PheraStar at Absorbance 450 nm. […] Fluorescence was measured in the RL2-H channels (Live/Dead stain) and BL1-H channel (AlexaFluor488 stain) on the iQue Plus Screener (IntelliCyt). […]

[2] = target: T2, rhesus CD137-human IgG1 Fc tagged protein (rhesus; human, UniProt F6W5G6 24-186); experiment: SPR (Biacore T200), single cycle kinetics, rhesus CD137-Fc captured on Protein G chip, 25 C, 1:1 fit; average ± SD
T2 construct: also called rhesus CD137Fc; rhesus CD137Fc recombinant protein
T2 sequence: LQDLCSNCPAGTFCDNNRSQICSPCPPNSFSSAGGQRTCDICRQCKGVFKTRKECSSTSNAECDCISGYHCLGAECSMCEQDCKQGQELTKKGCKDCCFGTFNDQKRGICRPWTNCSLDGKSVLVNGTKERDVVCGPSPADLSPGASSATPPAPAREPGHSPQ
Experimental: (§1) The Biacore T200 instrument was used to study the interaction between VH with human and rhesus CD137-human IgG1 Fc tagged protein by surface plasmon resonance (SPR). Single cycle kinetics assays used to evaluate the kinetics and affinity of the interaction. Experiments were performed at 25° C. in HBS-EP+ assay buffer with a flow rate of 30 μl/minute. A Protein G chip was used to capture the Fc tagged recombinant CD137 diluted to 2 μg/ml to one of the flow cells over 7 seconds. A second flow cell without any captured CD137 was used as the reference cell. A five point, three-fold dilution series of VH was made with a top concentration of 60 nM. The binding kinetics were followed by flowing these over the chip surface. The contact time for each of the binding steps was 180 seconds and the dissociation step was 1800 and 3600 seconds for rhesus and human CD137 respectively. After each run, the sensors were regenerated with glycine pH 1.5 to remove the captured CD137. The data was fitted to a 1:1 binding model after double reference subtraction using the Biacore T200 Evaluation software.

[3] = target: T3, human PSMA expressed on cells (human, UniProt Q04609 1-750); experiment: dual-binding cell ELISA: CHO-PSMA cells, bound construct detected with 1 nM CD137huFc and anti-huFc-HRP; average ± SD, n=3
T3 construct: Type II membrane glycoprotein; also called CHO human PSMA; CHO PSMA
T3 sequence (Q04609 whole entry): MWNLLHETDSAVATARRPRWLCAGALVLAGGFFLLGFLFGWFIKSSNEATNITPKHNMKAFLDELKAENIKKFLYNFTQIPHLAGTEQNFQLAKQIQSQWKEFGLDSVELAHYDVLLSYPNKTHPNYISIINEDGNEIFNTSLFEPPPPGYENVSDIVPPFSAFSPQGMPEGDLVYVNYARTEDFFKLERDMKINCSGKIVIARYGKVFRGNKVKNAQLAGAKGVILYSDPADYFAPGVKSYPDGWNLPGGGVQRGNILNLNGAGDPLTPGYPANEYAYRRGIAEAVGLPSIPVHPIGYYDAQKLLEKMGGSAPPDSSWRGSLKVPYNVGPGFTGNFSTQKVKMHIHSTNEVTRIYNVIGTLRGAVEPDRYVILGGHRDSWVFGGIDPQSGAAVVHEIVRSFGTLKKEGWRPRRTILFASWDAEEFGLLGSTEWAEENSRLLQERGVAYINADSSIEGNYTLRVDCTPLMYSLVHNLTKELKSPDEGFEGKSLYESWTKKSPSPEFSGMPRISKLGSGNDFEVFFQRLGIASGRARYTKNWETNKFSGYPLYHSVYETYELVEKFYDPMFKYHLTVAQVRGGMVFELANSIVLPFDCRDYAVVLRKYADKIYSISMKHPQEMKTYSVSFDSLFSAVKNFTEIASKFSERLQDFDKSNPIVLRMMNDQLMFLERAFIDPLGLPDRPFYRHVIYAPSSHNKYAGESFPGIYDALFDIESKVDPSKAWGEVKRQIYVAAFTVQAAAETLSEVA
Experimental: (§2) Dual target engagement of CD137 and PSMA by the bispecific molecules was assessed using an ELISA format and by flow cytometry with T cells. For ELISA, CHO-PSMA cells (20000/well) were seeded into 96 well plates (Greiner cat no. 353872) in Hams F12 supplemented with L-Glutamine+Blasticidin+Tetracycline and incubated at 37° C. with 5% CO₂ overnight. All subsequent steps were performed at room temperature and included washes with PBS between each step. Plates were blocked with PBS/0.1% BSA for 1 hour then serially diluted Humabody® VH were added and allowed to bind for 1 hour. Following removal of unbound VH, 1 nM CD137huFc (Acro Biosystems cat no. 41B-H5258) was added to the wells and incubated for 1 hour. A 1:3000 dilution of Anti-huFc-HRP (Jackson ImmunoResearch cat no. 109-035-098) was subsequently added for 1 hour and plates developed by addition of TMB. The reaction was stopped by addition of 0.5M sulphuric acid and plates read on BMG PheraStar at Absorbance 450 nm. […] Human CD8+ T cells pre-stimulated for 48 hours with PMA/ionomycin were washed with FACS buffer (PBS supplemented with 10% human serum and 0.05% sodium azide) by centrifugation. Serially diluted bispecific and trispecific Humabody VH construct were added to the cells for 1 hour on ice. Plates were washed with FACS buffer then detection mix containing 5 nM biotinylated-PSMA, 20 nM Streptavidin AlexaFluor488 and Live/Dead NearIR cell stain dilution added. Plates were incubated at 4° C. for 1 hour then washed twice with FACS buffer by centrifugation. Cells were fixed by addition 1× BD Cell fix solution, then washed twice with PBS by centrifugation and the cell pellets resuspended in PBS. Fluorescence was measured in the RL2-H channels (Live/Dead stain) and BL1-H channel (AlexaFluor488 stain) on the iQue Plus Screener (IntelliCyt). The bispecific and trispecific molecules were able to simultaneously bind human CD8+ T cells and PSMA protein.

[4] = target: T2, rhesus CD137-human IgG1 Fc tagged …; experiment: SPR (Biacore T200), single cycle kinetics, rhesus CD137-Fc captured on Protein G chip, 25 C, 1:1 fit
Experimental: as §1

[5] = target: T4, cynomolgus PSMA expressed on CHO cells (cynomolgus, UniProt A0A2K5VNZ0 1-750); experiment: FMAT, CHO cynomolgus PSMA cells, detection with CD137huFc and anti human Fc-Alexa Fluor-488; n=3
T4 construct: whole, on cells; also called CHO cynomolgus PSMA cells

[6] = target: T5, human CD137 expressed on cells (human, UniProt Q07011 24-255); experiment: dual-binding flow cytometry: pre-stimulated human CD8+ T cells, bound construct detected with 5 nM biotinylated-PSMA and streptavidin-AlexaFluor488; average ± SD, at least 6 donors
T5 construct: Whole entry with its signal peptide; also called 4-1BB; TNFRS9
T5 sequence (Q07011 24-255 limits assumed): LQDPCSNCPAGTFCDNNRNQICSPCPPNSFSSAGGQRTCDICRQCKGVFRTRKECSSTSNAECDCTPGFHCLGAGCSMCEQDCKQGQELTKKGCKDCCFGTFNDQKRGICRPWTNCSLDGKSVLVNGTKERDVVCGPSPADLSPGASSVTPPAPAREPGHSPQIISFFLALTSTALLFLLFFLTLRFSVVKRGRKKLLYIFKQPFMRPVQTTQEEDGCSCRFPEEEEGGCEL
Experimental: as §2, with “Serially diluted bispecific and trispecific Humabody VH construct were added to the cells for 1 hour on ice. Plates were washed with FACS buffer then detection mix containing 5 nM biotinylated-PSMA, 20 nM Streptavidin AlexaFluor488 and Live/Dead NearIR cell stain dilution added. Plates were incubated at 4° C. for 1 hour then washed twice with FACS buffer by centrifugation. Cells were fixed by addition 1× BD Cell fix solution, then washed twice with PBS by centrifugation and the cell pellets resuspended in PBS.” left out, “The bispecific and trispecific molecules were able to simultaneously bind human CD8+ T cells and PSMA protein.” left out

B1: Humabody VH 4.1 (VHH)
VHH: EVQLVESGGGVVQPGRSLRLSCAASGFSFSGYGMHWVRQAPGKGLEWVAYISYDGSNKYYADSVKGRFTISRDNSKNTLYLQMNSLRAEDTAVYYCAKDPAWGLRLGESSSYDFDIWGQGTMVTVSS
B1: no binding (tested: 1e-7 M (log10 -7)) [1].

B2: Humabody 1.113 (VHH)
VHH: EVQLVESGGGLVQPGGSLRLSCAASGFTLSNYWMNWVRQAPGKGLEWVANINQDGSERYYVDSVKGRFTISRDNAKNSLYLQMNSLRAEDTAVYYCARGGEGYGVDHYGLDVSGQGTTVTVSS
Binder B2 has a Kd [2] of 0.27 nM, a koff [2] of 0.00028 s⁻¹ and a kon [2] of 1.1e+06 M⁻¹ s⁻¹.

B3: 4.1-6GS-1.113-6GS-VH (HSA)-4GS (bispecific antibody)
chain: EVQLVESGGGVVQPGRSLRLSCAASGFSFSGYGMHWVRQAPGKGLEWVAYISYDGSNKYYADSVKGRFTISRDNSKNTLYLQMNSLRAEDTAVYYCAKDPAWGLRLGESSSYDFDIWGQGTMVTVSSGGGGSGGGGSGGGGSGGGGSGGGGSGGGGSEVQLVESGGGLVQPGGSLRLSCAASGFTLSNYWMNWVRQAPGKGLEWVANINQDGSERYYVDSVKGRFTISRDNAKNSLYLQMNSLRAEDTAVYYCARGGEGYGVDHYGLDVSGQGTTVTVSSGGGGSGGGGSGGGGSGGGGSGGGGSGGGGSEVQLVESGGGLVQPGRSLRLSCAASGFTFHHYAMHWVRQAPGKGLEWVSGISWNGNKITYADSVKGRFTISRDNAKNSLYLQMNSLRAEDTALYYCVRDSSLFIVGAPTFEHWGRGTLVTVSSGGGGSGGGGSGGGGSGGGGS
notes: Trispecific single-chain fusion of three VH domains (PSMA, CD137, human serum albumin)
With B3 the EC50 [3] was 2.2 nM, the Kd [4] was 0.12 nM and the koff [4] was 5.2e-05 s⁻¹. It also gave a kon [4] of 440000 M⁻¹ s⁻¹ and an EC50 [5] of 0.57 nM.

B4: 4.1-6GS-VH HSA 6GS-1.113-4GS (bispecific antibody)
chain: EVQLVESGGGVVQPGRSLRLSCAASGFSFSGYGMHWVRQAPGKGLEWVAYISYDGSNKYYADSVKGRFTISRDNSKNTLYLQMNSLRAEDTAVYYCAKDPAWGLRLGESSSYDFDIWGQGTMVTVSSGGGGSGGGGSGGGGSGGGGSGGGGSGGGGSEVQLVESGGGLVQPGRSLRLSCAASGFTFHHYAMHWVRQAPGKGLEWVSGISWNGNKITYADSVKGRFTISRDNAKNSLYLQMNSLRAEDTALYYCVRDSSLFIVGAPTFEHWGRGTLVTVSSGGGGSGGGGSGGGGSGGGGSGGGGSGGGGSEVQLVESGGGLVQPGGSLRLSCAASGFTLSNYWMNWVRQAPGKGLEWVANINQDGSERYYVDSVKGRFTISRDNAKNSLYLQMNSLRAEDTAVYYCARGGEGYGVDHYGLDVSGQGTTVTVSSGGGGSGGGGSGGGGSGGGGS
notes: Trispecific single-chain fusion of three VH domains (PSMA, human serum albumin, CD137)
B4 gave an EC50 [3] of 1.1 nM.

B5: 4.1-6GS-1.113 (bispecific antibody)
chain: EVQLVESGGGVVQPGRSLRLSCAASGFSFSGYGMHWVRQAPGKGLEWVAYISYDGSNKYYADSVKGRFTISRDNSKNTLYLQMNSLRAEDTAVYYCAKDPAWGLRLGESSSYDFDIWGQGTMVTVSSGGGGSGGGGSGGGGSGGGGSGGGGSGGGGSEVQLVESGGGLVQPGGSLRLSCAASGFTLSNYWMNWVRQAPGKGLEWVANINQDGSERYYVDSVKGRFTISRDNAKNSLYLQMNSLRAEDTAVYYCARGGEGYGVDHYGLDVSGQGTTVTVSS
notes: the tested construct may be that one
For B5, the EC50 [3] was 0.57 nM and the EC50 [6] was 1.3 nM.
